Publication PMC3367199

T1: rCRR22 (UniProt Q3E6Q1 47-809)
T1 sequence: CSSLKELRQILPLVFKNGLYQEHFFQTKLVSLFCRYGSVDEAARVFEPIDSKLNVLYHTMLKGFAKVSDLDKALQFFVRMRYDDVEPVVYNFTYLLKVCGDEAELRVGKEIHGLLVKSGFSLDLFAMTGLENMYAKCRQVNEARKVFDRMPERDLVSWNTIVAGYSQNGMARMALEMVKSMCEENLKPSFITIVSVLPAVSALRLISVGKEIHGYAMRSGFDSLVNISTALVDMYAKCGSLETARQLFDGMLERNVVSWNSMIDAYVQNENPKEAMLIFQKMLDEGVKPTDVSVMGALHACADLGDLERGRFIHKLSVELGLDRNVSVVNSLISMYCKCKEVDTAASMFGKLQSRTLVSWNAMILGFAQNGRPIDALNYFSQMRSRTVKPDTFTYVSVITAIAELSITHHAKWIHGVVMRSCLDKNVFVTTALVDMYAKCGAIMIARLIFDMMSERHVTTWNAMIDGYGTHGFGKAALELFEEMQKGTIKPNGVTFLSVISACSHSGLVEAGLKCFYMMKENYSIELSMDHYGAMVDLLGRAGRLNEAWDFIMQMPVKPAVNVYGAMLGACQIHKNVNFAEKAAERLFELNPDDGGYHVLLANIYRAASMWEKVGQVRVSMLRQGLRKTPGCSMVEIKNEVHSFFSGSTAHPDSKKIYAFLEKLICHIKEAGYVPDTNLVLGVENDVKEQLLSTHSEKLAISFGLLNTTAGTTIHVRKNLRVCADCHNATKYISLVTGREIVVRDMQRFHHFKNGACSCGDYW

B1: ndhB9S2 (ssRNA)
RNA: CUGCUUCAGCUUC
B2: ndhG1L (ssRNA)
RNA: CCUGGACCAAUACAUGAUUUUCUUUUAGUUUUUCUGGGAUCCGGUCUUCUA
B3: ndhB9L (ssRNA)
RNA: GCUUUUCUUUCUGUUACUUCGAAAGUAGCUGCUUCAGCUUCAGCCACUCGA
B4: ndhB9S (ssRNA)
RNA: UAGCUGCUUCAGCUUC
B5: ndhG1S2 (ssRNA)
RNA: UUUUUCUGGGAUC
B6: ndhG1S (ssRNA)
RNA: UAGUUUUUCUGGGAUC
B7: rpoB3L (ssRNA)
RNA: GGUUCAAGUUAUAACCCAGAAAUAAUUCGUGUAUAUAUUUCACAGAAACGU
B8: ndhD5S (ssRNA)
RNA: UUAUGCAGCUUCAACAUCUCC
B9: ndhB7S (ssRNA)
RNA: CAAGCUUUCCCUAGCCCCUUC
B10: rpoB3S (ssRNA)
RNA: AAUAAUUCGUGUAUAUAUUUC
B11: rpoB3S2 (ssRNA)
RNA: AAUUCGUGUAUAUAUUUC
B12: ndhB7S2 (ssRNA)
RNA: GCUUUCCCUAGCCCCUUC
B13: ndhB7L (ssRNA)
RNA: AUCACUGUAGGAAUUGGGUUCAAGCUUUCCCUAGCCCCUUCUCAUCAAUGG
B14: ndhD5S2 (ssRNA)
RNA: UGCAGCUUCAACAUCUCC
B15: ndhD5L (ssRNA)
RNA: GUCGGUACAAUCCAAAUAAUUUAUGCAGCUUCAACAUCUCCCGGUCAACGU
B16: ndhD2 (ssRNA)
RNA: GCAAUGUACAGCGGUCAAAUAGGAUCAUUUUCUUCU
B17: ndhD1 (ssRNA)
RNA: GACCUGGUGUAUCUUGUCUUUACCACGAAUGAUUUU
B18: ycf1 (ssRNA)
RNA: UAACUGUCCUAGCUCUACCG

The binders below were run against T2, rOTP82 (UniProt Q9LN01 41-741) (assay: EMSA).
T2 sequence (Q9LN01 41-741): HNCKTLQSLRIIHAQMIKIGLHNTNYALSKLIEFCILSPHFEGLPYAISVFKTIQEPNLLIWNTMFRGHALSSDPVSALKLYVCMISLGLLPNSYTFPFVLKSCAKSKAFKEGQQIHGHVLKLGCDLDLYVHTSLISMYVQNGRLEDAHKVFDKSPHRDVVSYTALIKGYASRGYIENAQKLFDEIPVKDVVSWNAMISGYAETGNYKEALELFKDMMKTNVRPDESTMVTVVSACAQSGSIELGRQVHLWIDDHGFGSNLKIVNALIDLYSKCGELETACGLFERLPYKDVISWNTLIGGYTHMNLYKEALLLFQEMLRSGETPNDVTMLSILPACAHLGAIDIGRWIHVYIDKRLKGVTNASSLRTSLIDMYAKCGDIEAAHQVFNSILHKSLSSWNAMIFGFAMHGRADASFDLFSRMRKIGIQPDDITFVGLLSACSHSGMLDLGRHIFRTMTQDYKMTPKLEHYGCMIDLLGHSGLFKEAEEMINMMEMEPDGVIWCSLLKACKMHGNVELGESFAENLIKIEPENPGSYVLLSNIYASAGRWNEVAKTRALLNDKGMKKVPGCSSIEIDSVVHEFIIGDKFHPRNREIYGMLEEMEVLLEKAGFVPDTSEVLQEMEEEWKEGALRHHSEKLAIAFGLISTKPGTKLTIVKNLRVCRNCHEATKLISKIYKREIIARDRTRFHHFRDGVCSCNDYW
In the case of B1, the Kd is reported as 119 nM. B2: binds. B3: binds. B4 was tested, and the Kd was 9.7 nM. B5 was tested, and the Kd was 167 nM. Work on B6 yielded a Kd of 12.2 nM.

The binders below were run against T1, rCRR22 (assay: EMSA).
B7: binds. Work on B8 yielded a Kd of 10.8 nM. Work on B9 yielded a Kd of 9.2 nM. In the case of B10, the Kd is reported as 13.5 ± 2.5 nM. Work on B11 yielded a Kd of 18.9 ± 3.1 nM. For B12, the Kd was 70 nM. B13: binds. In the case of B14, the Kd is reported as 96.2 nM. B15: binds.

Target: T2, rOTP82
Test: EMSA
Remark: another data set of the same source
B16: no binding. B17: no binding.

Target: T1, rCRR22
Test: EMSA
Remark: another data set of the same source
B18: no binding. B17: no binding.
